Test results from publication PMC3397886.

Columns and labels:
[1] = target: V1 (A-His8/ΔCys, A-C255A/A-S232A/A-T235S/F-S54C) labelled with Cy3-maleimide on subunit F (Thermus thermophilus) (UniProt Q56403); assay: FRET or BRET
[2] = target: A3B3D (A-His8/ΔCys, A-C255A/A-S232A/A-T235S, D/E48C) labelled with Cy3-maleimide on subunit D (Thermus thermophilus) (UniProt Q56403); assay: FRET or BRET

Kd [1]: 0.26 nM | Kd [2]: 1.1 nM
Substance: Vo (C-S105C/C-C268S/C-C323S) labelled with Cy5-maleimide on subunit C (from UniProt P74902 1-323; P74901 1-188) (complex)
